Measurements published in patent US20050142634.

Tested on: modulator of non-genomic activity of nuclear receptors (MNAR)

Substance: cSrc
- cSrc enzymatic activity (acid denatured enolase as a substrate, [32P]-γATP, SDS-PAGE autoradiography): MNAR itself strongly stimulates cSrc enzymatic activity
